From paper PMC12207370, “Macrocyclic Peptide Probes for Immunomodulatory Protein CD59: Potent Modulators of Bacterial Toxin Activity and Antibody‐Dependent Cytotoxicity” (Angewandte Chemie (International Ed. in English), 2025)

Molecular target: T1, biotinylated CD59 (Homo sapiens, UniProt P13987)
T1 construct: Recombinant soluble human CD59 with an additional C-terminal cysteine residue
T1 sequence (P13987 26-102 limits assumed): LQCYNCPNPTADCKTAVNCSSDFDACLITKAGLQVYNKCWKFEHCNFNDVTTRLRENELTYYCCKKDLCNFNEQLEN
Assay: mRNA-display cyclic peptide screen against CD59-biotin, NGS abundance after 6th selection round
Conditions: for Percentage Seq I: counts normalised by total counts of sample Seq I; for Percentage Seq I / Percentage Seq II: percentage of the pool; for Percentage Seq I / Percentage Seq II / Percentage Average / Percentage of the pool, averaged across the two sequencing samples / Percentage of the pool, Seq I / Percentage of the pool, Seq II: sheet R6; for Percentage Seq II: counts normalised by total counts of sample Seq II; for Percentage Average: percentage of the pool averaged across the two sequencing samples; for Counts Seq I / Counts Seq II: raw NGS counts of peptide sequence; for Counts Seq I: sequencing sample Seq I; for Counts Seq I / Counts Seq II / Counts (raw counts for peptide sequence), Seq I / Counts (raw counts for peptide sequence), Seq II: sheet R6 (6th selection round); for Counts Seq II: sequencing sample Seq II; for Counts (raw counts for peptide sequence), Seq I: NGS sample Seq I; for Counts (raw counts for peptide sequence), Seq II: NGS sample Seq II; for Percentage of the pool, averaged across the two sequencing samples: average of Seq I and Seq II; for Percentage of the pool, Seq I: counts normalised by total counts of NGS sample Seq I; for Percentage of the pool, Seq II: counts normalised by total counts of NGS sample Seq II
In short: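 Peptide–mRNA fusions were made by in vitro translation with a customised PURE express kit. The kit lacked release factor 1 and methionine and was supplemented with […] initiator tRNA carrying N-chloroacetyl-d-tyrosine. Thioether macrocycles were formed, then enriched and amplified over iterative rounds on CD59-biotin immobilised on streptavidin beads. NGS read counts per sequence were recorded after the 6th selection round.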

Sequence	Percentage Seq I [%]	Percentage Seq II [%]	Percentage Average [%]	Counts Seq I	Counts Seq II	Counts (raw counts for peptide sequence), Seq I	Counts (raw counts for peptide sequence), Seq II	Percentage of the pool, averaged across the two sequencing samples [%]	Percentage of the pool, Seq I [%]	Percentage of the pool, Seq II [%]
FVAGNRDHTRG	0.023	0.016	0.020	102	7					
CYGGRTFIYAWP	0.060	0.072	0.066	263	31					
GRLNECHVIRP						43	7	0.013	0.010	0.016
CLRRSYEATSI	0.020	0.021	0.021	88	9					
WSTRTFTCRTLL	0.395	0.446	0.420	1728	192					
AVRGSSFYVWG	0.098	0.107	0.102	427	46					
FVRGDLYSVRG	0.018	0.032	0.025	78	14					
SSALERIGKCP	0.227	0.211	0.219	991	91					
FVTGNRDHTSG						60	4	0.011	0.014	0.009
SAWGNRQVQYY	0.110	0.116	0.113	483	50					
LCSVRGSNDWI	0.073	0.074	0.074	320	32					
CFQRRTLGPDAI	0.094	0.088	0.091	412	38					
LVTGNRDHTRG	0.023	0.030	0.027	100	13					
SVRGDLYSVLG						74	7	0.017	0.017	0.016
CAWGNRHIAYY	0.183	0.195	0.189	800	84					
FVRGDLYPVLG						65	5	0.013	0.015	0.012
SAWGNRQIQYY	7.073	7.046	7.059	30945	3036					
CYGGRTYIYAWS	0.018	0.019	0.018	77	8					

Sequence	Percentage Seq I [%]	Percentage Seq II [%]	Percentage Average [%]	Counts Seq I	Counts Seq II	Counts (raw counts for peptide sequence), Seq I	Counts (raw counts for peptide sequence), Seq II	Percentage of the pool, averaged across the two sequencing samples [%]	Percentage of the pool, Seq I [%]	Percentage of the pool, Seq II [%]
HSYGSSQIAYH						74	8	0.018	0.017	0.019
CYGGRTFIYAWS	8.492	8.097	8.295	37156	3489					
VKYGNSNFVRG	0.660	0.657	0.659	2889	283					
PFAKRVAAQGGC						24	6	0.010	0.00549	0.014
QWNRWYGMDER	0.084	0.097	0.091	369	42					
SSWAQLPCRR	0.066	0.070	0.068	289	30					
VWGNRWTRIYW	0.037	0.035	0.036	161	15					
QWNRWYGIDEL	0.075	0.070	0.072	329	30					
YARGDASHTIW	0.043	0.056	0.049	186	24					
CFSQRLDRTSS	0.027	0.026	0.026	116	11					
HAFGSRDITYY	0.246	0.272	0.259	1078	117					
WAKGSDTFTSG						141	1	0.017	0.032	0.00232
CFAGRLTIDAG						59	4	0.011	0.013	0.009
CFTQRIASGSK	0.024	0.021	0.022	105	9					
SWTWGNRTSVRG						36	7	0.012	0.008	0.016
VAHGSKKSQFW	0.088	0.104	0.096	386	45					
FQYFGTGIAFG	0.301	0.325	0.313	1316	140					
